In US20130337478A1 one finds DBC (dynamic binding capacity) (mg human IgG/ml resin) and DBC (dynamic binding capacity) data, which are given here for 17 molecules.

Numbering of substitutions follows the chain as printed.

The labels stand for the following.
B1: anti IgG-CH1 VHH #01 (VHH)
VHH: QVQLQESGGGLVQAGGSLRLSCAVSGNTLSRYAMGWFRQTPGNEREFVAAIRWNNGATYYADSVEGRFTISRDSGKNTVYLQMNNLQPEDTAVYYCAGRFLGYASSNAYHEALYNYDYWGQGTQVTVSS
B2: anti IgG-CH1 VHH #64 (VHH)
VHH: B1 VHH with N43K, E65K, Q87K
B3: anti IgG-CH1 VHH #19 (VHH)
VHH: B1 VHH with E65K
B4: anti IgG-CH1 VHH #55 (VHH)
VHH: B1 VHH with E65K, Q87K
B5: anti IgG-CH1 VHH #37 (VHH)
VHH: B1 VHH with N43K, E65K
B6: anti IgG-CH1 VHH #85 (VHH)
VHH: B1 VHH with T40A, N85S
B7: anti IgG-CH1 VHH #10 (VHH)
VHH: B1 VHH with N43K
B8: anti IgG-CH1 VHH #73 (VHH)
VHH: B1 VHH with E65K, K76R, Q87K
B9: anti IgG-CH1 VHH #83 (VHH)
VHH: B1 VHH with E6D, T40A, A57N, G75A, N85S, G98A, G102P
B10: anti IgG-CH1 VHH #86 (VHH)
VHH: B1 VHH with E6D, L11S, T40A, A57N, E65K, G75A, N85S, Y95F, G98A, G102P
B11: anti IgG-CH1 VHH #84 (VHH)
VHH: B1 VHH with E6D, T40A, A57N, E65K, G75A, N85S, G98A, G102P
B12: anti IgG-CH1 VHH #89 (VHH)
VHH: B1 VHH with T40A, A57N, E65K, G75A, N85S, G98S, G102P
B13: anti IgG-CH1 VHH #28 (VHH)
VHH: B1 VHH with Q87K
B14: anti IgG-CH1 VHH #82 (VHH)
VHH: B1 VHH with T40A, A57N, E65K, G75A, Y80F, N85S, Y95F, G98A, G102P
B15: anti IgG-CH1 VHH #46 (VHH)
VHH: B1 VHH with N43K, Q87K
B16: anti IgG-CH1 VHH #88 (VHH)
VHH: QVQLQESGGGSVQAGGSLRLSCAVSGNTLSRYAMGWFRQAPGNEREFVAAIRWNNGNTYYADSVEGRFTISRYSAKNLVYLQMNSLQAEDTAIYYCAARFLPYASSNAYHEALYNYDYWGQGTQVTVSS
B17: anti IgG-CH1 VHH #87 (VHH)
VHH: QVQLQESGGGLVQAGASLRLSCEVSGNTLSQYAMGWFRQVPGHKREFVAAIRWTNGNTYYADSVEGRFTISRDSAKKTVYLQMNSLQPDDTAIYYCAARFLPYASSNAYHESLYNYDYWGQGTQVTVSS

In the first experiment the target is polyclonal human IgG. In words: affinity chromatography; VHH on Sepharose resin at about 15 mg/ml ligand density.
With B1, the DBC (dynamic binding capacity) (mg human IgG/ml resin) came to 28.

A further experiment deals with polyclonal human IgG. In words: affinity chromatography; VHH coupled to NHS-Sepharose 4B FF, polyclonal human IgG 0.5 mg/ml in PBS pH 7.4, 150 cm/hr.
B1: the DBC (dynamic binding capacity) worked out at 8.74 mg/mL.

Molecule B2 returned a DBC (dynamic binding capacity) of 10.2 mg/mL.

In the case of B3, the DBC (dynamic binding capacity) worked out at 9.4 mg/mL.

Regarding B4, the DBC (dynamic binding capacity) is 11.3 mg/mL.

In turn, B5 displayed a DBC (dynamic binding capacity) of 9.8 mg/mL.

In turn, B6 registered a DBC (dynamic binding capacity) of 11.9 mg/mL.

As for B7, the DBC (dynamic binding capacity) was found to be 12 mg/mL.

In turn, B8 yielded a DBC (dynamic binding capacity) of 11.7 mg/mL.

Take B9: the DBC (dynamic binding capacity) was 8.46 mg/mL.

B10 registered a DBC (dynamic binding capacity) of 4.98 mg/mL.

In turn, B11 yielded a DBC (dynamic binding capacity) of 8.27 mg/mL.

B12 yielded a DBC (dynamic binding capacity) of 5.61 mg/mL.

Regarding B13, the DBC (dynamic binding capacity) was 12.5 mg/mL.

As to B14, the DBC (dynamic binding capacity) stood at 6.69 mg/mL.

The molecule B15 displayed a DBC (dynamic binding capacity) of 11.2 mg/mL.

Regarding B16, the DBC (dynamic binding capacity) amounted to 7.31 mg/mL.

B17 displayed a DBC (dynamic binding capacity) of 5.64 mg/mL.
